The nanobody polyreactivity screen of Harvey et al. (2022)

Assay: yeast display, Sf9 membrane polyspecificity reagent, FACS + sequencing; frameworks hold sequencing errors
How it was run: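 Galactose induction of a Saccharomyces cerevisiae BJ5465 synthetic nanobody display library ran 36–48 hours. The cells were then stained for 1 hour at 4 °C with 10% biotinylated, detergent-solubilized Sf9 membrane reagent, pulled down on streptavidin microbeads and FACS-sorted into low and high (top ~1%) gates on expression and reagent-binding fluorescence. Labels for polyreactivity follow the gate of origin.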

Sequence	polyreactivity (PSR sort gate)
QVQLVESGGALVQAGGSLRLSCAASAFIFKANAMGRYRQAPGKERELVASITFGGDSTYYADSVKGRFTISRDNAKNTVYLQMNSLKAEDNAVYFCNTRRRSYPTYYYWGQGTQVTVLS	low polyreactivity
QVQLVESGGALVQAGGSLRLSCAASGFIFGSYVMGWYRQAPGKERELVAAISQIGGRTYYADSVKGRFTISRDNAKKTVYLQMNSLKPEDTAVYYCAARWAGYRYVGGYWRDDMDYWGQGTQVTVSS	high polyreactivity
QVQLVESGGALVQAGGSLRLSCAASGFIFPYYAMGWYRQAPGKERELVAAITFSATRTYYADSVKGRFTISRDNAKNTVYLQMNSLKPEDTAVYYCAVGSASSGYEYDYWGQGTQVTVSS	low polyreactivity
QVQLVESGGALVQAGGSLRLSCAASGFTFRRYAMGWYRQAPGKERELVAAINKSGGSTYYADSVKGRFTISRDKSKNTVYFQMNSLKPEDTAVYYCAARFSYWKTKRAYDWGQGTQVNVSS	high polyreactivity
QVQLVESGGALVQAGGSLRLSCAASGRIFGVNTMGWYRQAPGKERELVDAISAGGGSTYYADSVKGRFTISRDLAKNTVYLQMNSLKPEDTAVYYCNVLTLNYRSTSRRKEYDYWGQGTQVTVSS	high polyreactivity
QVQLVESGGALVQAGGSLRLSCAASGRIFLKYTMGWYRQAPGKERELVAAISRGGSTYYADSVKGRFTISRDNAKNTVYLQMNSLKPEDTAVYYCAATSYRRTGYNYWGQGTQVTVSS	high polyreactivity
QVQLVESGGALVQAGGSLRLSCAASGRTFAVNAMGWYRQAPGKEREFVAAISKRGGSTYYADSVKGRFTISRDNAKNTVYLQMNSLTPEDTAVYYCAADYTKHYWGQGTQVTVSS	high polyreactivity
QVQLVESGGALVQAGGSLRLSCAASGRTFGINAMGWYRQAPGKERELVAAIRTGGSTYYADSVKGRFTISRDNAKNTVYLQMNSLKPADTAVYYCAAKAYRRYTIPPYGYWGQGTQVTVSS	high polyreactivity
QVQLVESGGALVQAGGSLRLSCAASGRTFGSYAMGWDRQAPGKESELVAAISRRGGSTYYADSVKGRFTISRDNAKNTVYLQLNSLKPEDSAVYYCAVRKASDYYYWGQGTQVTVSS	high polyreactivity
QVQLVESGGALVQAGGSLRLSCAASGRTFYNYAMGWYRQAPGKEREFVASITTSGGSTYYADSVKGRFTISRDNAKNTVYLQMNSLIPEDTAVYYCARRAYRSWTRNSYEYYYWGQGTQVTVSS	high polyreactivity
QVQLVESGGALVQAGGSLRLSCAASGSIFFENAMGWYRPAPGKERELVAAIRSGVDTYYADSVKGRFTLSRDNAKNTVYLQMNSLKPQDTAVYNCNADAYYYYAIWWSEVDYWGQGTQVTVSS	low polyreactivity
QVQLVESGGALVQAGGSLRLSCAASGSIFYWYAMGWYRQAPGKEREFVAGITGRGGSTYYADSVKGRFTISRDNAKNTVYLQMNSLKPEDTAVYYADFVKYGKYYQRYDYWGQGTQVTVSS	high polyreactivity
QVQLVESGGALVQAGGSLRLSCAASGSTFYSYAMGWYRQAPGKERELVAVISTGDTTDYADSVKGRFTISRDNAKNTVNLQMNSLKPEDTAVYYCNAPSYWYYPVLGSFLTFDYWGQGTQVTVSS	low polyreactivity
QVQLVESGGALVQAGGSLRLSCAASGYTFFYYAMGWYRQARGKERVLVAIDLNGGSTYYADSVKGRFTISRDNEKNTVYLQINSLKPEDTAVYYCNAKTSIGTWVGDDYWGQGTQVTVSS	low polyreactivity
QVQLVESGGALVQAGGSLRLSCAAYGRIFLVYAMGWSRQAPGKEREMVAAISWSTGSTYYADSVKGRFTISRDNAKNTVYLQMNSLKPEDTAVYYCAAEPELDEYEHDYWGQGTQVTVSS	low polyreactivity
QVQLVESGGALVQAGGSLRLSCAYTGLIFGLYAMGWYTQAPGQERDFVAAITSVTSTYYADSVKGRFTISRDNAKNTFFLQMISLKPEDTAVYYCAADSPVDYLYALYLSVRDDYWGHGTQVTVSS	low polyreactivity
QVQLVESGGALVQAGGSLRLTCAASGSTFWDNSMGWYRQAPGKEREFVADITAIGGTTYYADSVKGRFTISRDNAQNTVYLQMNSLKPEDTAVYYCAADWTTYGFSYFSIYYYWGQGTQVTVSS	low polyreactivity
QVQLVESGGAVVHAGGSLRLSCAASGFTFRYYDKGWYRQAHGKEMELVAAISSGGSTDYADSVKGRFTISRDNAKNTVYLQMNCLKPEDNAVYYCAADWWVVYTYDYWGPGTQVTVSS	low polyreactivity
QVQLVESGGCIDQAGGSLRLSCAASGSNFRGYAKGWYRQAPGKERELVAAITWSGGSTYYADSVKGRFTISRDKAKNTVSLQMNSLKPEDTAVYYCAAEYWDSDTYDYCGQGTQVTVSS	low polyreactivity
QVQLVESGGCIVQAGGSLRLSCAASGNIFYRNAMGWYRQAPGKERELVAAISSGGITYYADYVKGRFTISRDNAKNTVYLQMNSLKPDDTAVYYCAAYIRNCRATYEYWGPGTQVTVSS	high polyreactivity
QVQLVESGGCIVQAGGSLRLSCAASGRIFKLYAMGWYRQAPGKERELVAAITTSGGSTYYADSVKGRFTISRDNAKNTVSLEMNSLIPEDTAGYYCNARAVRYPFTGNYWGQGTQVTVSS	high polyreactivity
QVQLVESGGCKVQAGGSLRISCAASGRIFGYYMGWYRQAPGKEREMVARITFRGGSTYYADSVKGRFTNSRDNAKNNVYLQMNSLKPEDTAVYYCNARGKGGSTNRSDYWGQGTQVTVSS	high polyreactivity

Sequence	polyreactivity (PSR sort gate)
QVQLVESGGCLDQAGGSLRLSCAASGFTLHSYAMGWYRQAPGKERELVAAITTGGSTYYADSVKGRLTISRDNAKNTVYLQMNSLKPEDTAVYYCAAEDPGPYGGYVYWGQGTQVTVSS	low polyreactivity
QVQLVESGGCLFQAGASLRLSCAASGRILAYYAMGWYRQAPGKERELVAAITSGGRTYYADSVKGRFTISRDNAKNTVYLQMNSLKPEDTAVYYCNRVTGYDSGDGYWGQGTQVTVSS	high polyreactivity
QVQLVESGGCLVEAGGSLRLSCAASGRIFVHKAMGWYRQAPGKEREFVAAISLRGGSTYYADSVKGRFTISRDNAKNTVYLQMNFLKPEVTAVYYCAAVPAHFYGYDYWGQGTQVTVSS	low polyreactivity
QVQLVESGGCLVHAGGSHRLRCAASGSTFSRYAMGWYRHAPGKERELVAAISSSGGSTYYADSVKGRFTISRDNAKNTVYLQMNSLKPEDTAVYYCAARIWRTRRYDYWGQGTQVTVSS	high polyreactivity
QVQLVESGGCLVQAGGRLRLSCAASGRIFYWNDMGWYRQAPGKERELVAAIDFSGASTYYADSVKGRFTISRDNAKNTVYLEMNSLKPEDTAVYYCAAYQRRGKYQMDYWGQGTQVTVSS	low polyreactivity
QVQLVESGGCLVQAGGRLRLSCAASGSTFAYYSMGWDRQAPGKERELVAAITDSGGSTYYADSVKGRFTISRDNAKNTVYLQMNSLIPEDTAVYYCAVYGPWAYYPMGYWGQGSQVTVSS	low polyreactivity
QVQLVESGGCLVQAGGRLRLSCAPSGFTFRKYAMGWYRQAPGKERQLVAAITANGGRTYNADSVKGRFTISRDNAKYTDYLKMNSLKPEDTSVYYCYARPSRGFRPRSAYGYWGQGTQVTVSS	high polyreactivity
QVQLVESGGCLVQAGGSHRLSCAASGFIFYRYAMGWYRQAPGKERELVAAISGSGGRTYYADSVKGRFTISRDNAKNTVYLQMNSLKPEDTAVYYCAADKQAYVTDDYWGQGTQVTVSS	high polyreactivity
QVQLVESGGCLVQAGGSIRLSCAASGSILGFNAMGWSRQAPGKERELVAAISTSGSSTYYADSVKGRFTISRDNATISVYLLMNSLIPEDTAVYYCAKRRGGSRPYYYWGQRTQVTVSS	high polyreactivity
QVQLVESGGCLVQAGGSLRFSCAASGLTLFRYAMGWYRQAPGKERELVAAIDYGGGTYYADSVKGRFRISRDNAKNTVYLQMNSLKPEDTAVYYCAVEPEYKYYEGDYWGQGTQVNVSS	low polyreactivity
QVQLVESGGCLVQAGGSLRLSCAASGFIFPPNAMGWYRQAPGKERELVASISSSGGSTYYADSVKGRFTISRDNAKNTVYLQMNSLKPEDTAVYYCAADWFYGWGKYDYWGQGTQVTVSS	low polyreactivity
QVQLVESGGCLVQAGGSLRLSCAASGFIIRYYAMGWYRQAPGKERELDAAITRGGSTYYADSVKGRFRISRDNAKNTVYLQMNSLNPEDTAVYYCAARLYTQYYYWGQGTQVNVSS	high polyreactivity
QVQLVESGGCLVQAGGSLRLSCAASGFTFGPYAMGWYRQARGKERELVATLRSGDSTNYADSVKGRFTISRDNAKNTVYLQMNSVKPDDTAVYYCAVSYLSTMGRSRYEYWGQGTQVTVSS	low polyreactivity
QVQLVESGGCLVQAGGSLRLSCAASGFTFPGNAMGWYRQAPGKERELVAAMSASGGKTYYADSVKGRFTISRDNAKNTVYLQMNSLKPEDTAVYYCAAVVAFATGTYYYWGQGTQVTVSS	high polyreactivity
QVQLVESGGCLVQAGGSLRLSCAASGFTFPYYAMGWDRQAPGKERELVAAISSGGRTNYADSVKGRFTISRDNAKNTVYLQMNSLKPEDTAVYYCATRSYVFAWEFNYWGQGTQVTVSS	high polyreactivity
QVQLVESGGCLVQAGGSLRLSCAASGITFYEYAMGWSRQAPGKERELVAGITWSGGSTYYADSVKGRFTISRDNAKNTVYLEMNSLKPEDTAVYYCAATGAFWYPYDYWGQGTQVTVSS	high polyreactivity
QVQLVESGGCLVQAGGSLRLSCAASGLTLDQYALGWYRQAPGKEREFVAAISYSGGNTYYADSVKGRFTISRDNAKYTVYLQMNSLKPEDTAVYYCAAYYFYFYHKVIWYELDYWGQGTQVTVSS	low polyreactivity
QVQLVESGGCLVQAGGSLRLSCAASGPTFSKANAMGWYRQAPGKERELVAAITDGGSTYADSVKGRFTISRDNAKNTVYLQMYSMKPEDTAVYYCAKDTEVFYDSSYDYWGHGTQVTVSS	low polyreactivity
QVQLVESGGCLVQAGGSLRLSCAASGRIFESNAMGWYRQAPGKERELVAAISVNGASTSYADSVKGRFTISRDNAKNTVYLQMNSLKPEDTAVYYCAARRGKGYYYWGQGTQVTVSS	high polyreactivity
QVQLVESGGCLVQAGGSLRLSCAASGRIFLRYAMGWYRQAPGKEREFVADITYSGGSTYYADSVKGRFTISRDNAKNTVYLQMNSLKPEDTAVYYCAAGWVRPWATYKLDYWGQGTQVTVTS	high polyreactivity
QVQLVESGGCLVQAGGSLRLSCAASGRIFSAYAMGWYRQAPGKESELVAAISRSGGLTYYADSVKGRFTISRDNAKNTVYLQMTSLKPEDTAVYYCAARYGSYDSRRWYYYWGQGTQVTVSS	high polyreactivity
